Six molecules from US20240010751A1 (EXELIXIS, published 2024) can be followed below.

What is called EC50 is the concentration at which the effect is half-maximal. Low readings indicate a more potent agent, high ones a less potent agent.

Assay [1] addresses T1, CD47 and PD-L1 together on the surface of the same cells (CD47 PD-L1 TCA CHO cells); PD-L1 MDA-MB-231 cells; … (Homo sapiens (Human), UniProt Q08722 19-323; Q9NZQ7 19-290). The assay is described as follows: flow cytometry on CD47 PD-L1 TCA CHO cells (both targets on the cells); BC1 format. On the technique in general: Flow cytometry measures light scatter and fluorescence of single cells or particles in a stream.

Assay [2] deals with T1, CD47 and PD-L1 together on the surface …. The assay is described as follows: flow cytometry on Jeko-PD-L1 cells (both targets on the cells); BC44 format.
Assay [3] has as its target CD47 on cells (target cells of the assays) (Homo sapiens (Human), UniProt Q08722 19-323). The assay is described as follows: cell-based or functional assay.
Assay [4] concerns the target PD-L1 on cells (target cells of the assays) (Homo sapiens (Human), UniProt Q9NZQ7 19-290). Nature of the assay: cell-based or functional assay.
Assay [5] concerns the target T1, CD47 and PD-L1 together on the surface …. The assay is described as follows: flow cytometry on PD-L1 MDA-MB-231 cells (both targets on the cells); BC44 format.

PD-L1 on cells (target cells of the assays), sequence (Q9NZQ7 19-290 limits assumed): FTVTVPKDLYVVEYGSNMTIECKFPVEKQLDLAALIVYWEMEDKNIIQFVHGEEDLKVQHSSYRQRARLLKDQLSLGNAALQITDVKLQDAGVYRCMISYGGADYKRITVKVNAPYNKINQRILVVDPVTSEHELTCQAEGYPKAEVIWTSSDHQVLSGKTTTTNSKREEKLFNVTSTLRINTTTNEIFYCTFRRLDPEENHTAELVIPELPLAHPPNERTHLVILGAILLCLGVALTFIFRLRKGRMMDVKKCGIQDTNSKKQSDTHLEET

B1: C40 x P24 bispecific antibody in a BC1 format (bispecific antibody)
chain 1: not shown
chain 2: EVQLVESGGGLVQPGGSLRLSCAASGFTFSYYYIHWVRQAPGKGLEWVAWIDPYGHSTTYADSVKGRFTISADTSKNTAYLQMNSLRAEDTAVYYCARGGRGAMDYWGQGTLVTVSSASPREPQVYTDPPSRDELTKNQVSLTCLVKGFYPSDIAVEWESNGQPENNYKTTPPVLDSDGSFFLYSKLTVDKSRWQQGNVFSCSVMHEALHNHYTQKSLSLSGEC
chain 3: DIQMTQSPSSLSASVGDRVTITCRASQSVSSAVAWYQQKPGKAPKLLIYSASSLYSGVPSRFSGSRSGTDFTLTISSLQPEDFATYYCQQVSYSPYTFGQGTKVEIKRTVAAPSVFIFPPSDEQLKSGTASVVCLLNNFYPREAKVQWKVDNALQSGNSQESVTEQDSKDSTYSLSSTLTLSKADYEKHKVYACEVTHQGLSSPVTKSFNRGECDKTHTCPPCPAPELLGGPSVFLFPPKPKDTLMISRTPEVTCVVVDVSHEDPEVKFNWYVDGVEVHNAKTKPREEQYNSTYRVVSVLTVLHQDWLNGKEYKCKVSNKALPAPIEKTISKAKGQPREPQVCTLPPSREEMTKNQVSLSCAVKGFYPSDIAVEWESNGQPENNYKTTPPVLDSDGSFFLVSKLTVDKSRWQQGNVFSCSVMHEALHNHYTQKSLSLSPGK
chain 4: EVQLVESGGGLVQPGGSLRLSCAASGFTFDQYYIHWVRQAPGKGLEWVAEIYPAGSYTYYADSVKGRFTISADTSKNTAYLQMNSLRAEDTAVYYCARGPYSVRYALDYWGQGTLVTVSSASTKGPSVFPLAPSSKSTSGGTAALGCLVKDYFPEPVTVSWNSGALTSGVHTFPAVLQSSGLYSLSSVVTVPSSSLGTQTYICNVNHKPSNTKVDKKVEPPKSC
notes: B-Body of four polypeptide chains, BC1 format; CD47 arm from C40, PD-L1 arm from P24; also called C40 × P24
In assay [1], B1 yielded an EC50 of 1.3 nM. That is a single-digit nanomolar value.

B2: C56 x P22 bispecific antibody in a BC1 format (bispecific antibody)
chain 1: not shown
chain 2: EVQLVESGGGLVQPGGSLRLSCAASGFTFTYYYIHWVRQAPGKGLEWVAFIDPYSGSTEYADSVKGRFTISADTSKNTAYLQMNSLRAEDTAVYYCARGGLYALDYWGQGTLVTVSSASPREPQVYTDPPSRDELTKNQVSLTCLVKGFYPSDIAVEWESNGQPENNYKTTPPVLDSDGSFFLYSKLTVDKSRWQQGNVFSCSVMHEALHNHYTQKSLSLSGEC
chain 3: DIQMTQSPSSLSASVGDRVTITCRASQSVSSAVAWYQQKPGKAPKLLIYSASSLYSGVPSRFSGSRSGTDFTLTISSLQPEDFATYYCQQYYTSPYTFGQGTKVEIKRTVAAPSVFIFPPSDEQLKSGTASVVCLLNNFYPREAKVQWKVDNALQSGNSQESVTEQDSKDSTYSLSSTLTLSKADYEKHKVYACEVTHQGLSSPVTKSFNRGECDKTHTCPPCPAPELLGGPSVFLFPPKPKDTLMISRTPEVTCVVVDVSHEDPEVKFNWYVDGVEVHNAKTKPREEQYNSTYRVVSVLTVLHQDWLNGKEYKCKVSNKALPAPIEKTISKAKGQPREPQVCTLPPSREEMTKNQVSLSCAVKGFYPSDIAVEWESNGQPENNYKTTPPVLDSDGSFFLVSKLTVDKSRWQQGNVFSCSVMHEALHNHYTQKSLSLSPGK
chain 4: EVQLVESGGGLVQPGGSLRLSCAASGFTFSSYYIHWVRQAPGKGLEWVAWITSHGYSTKYADSVKGRFTISADTSKNTAYLQMNSLRAEDTAVYYCARDSVIYGLDYWGQGTLVTVSSASTKGPSVFPLAPSSKSTSGGTAALGCLVKDYFPEPVTVSWNSGALTSGVHTFPAVLQSSGLYSLSSVVTVPSSSLGTQTYICNVNHKPSNTKVDKKVEPPKSC
notes: B-Body of four polypeptide chains, BC1 format; CD47 arm from C56, PD-L1 arm from P22; also called C56 × P22
In turn, B2 had an EC50 in assay [1] of 1.1 nM. This EC50 and that of the molecule before are within 1.5-fold of each other.

B3: C59 x P22 bispecific antibody in a BC1 format (bispecific antibody)
chain 1: not shown
chain 2: EVQLVESGGGLVQPGGSLRLSCAASGFTFTSYYIHWVRQAPGKGLEWVAYIDSKHGTTQYADSVKGRFTISADTSKNTAYLQMNSLRAEDTAVYYCARGGRSAMDYWGQGTLVTVSSASPREPQVYTDPPSRDELTKNQVSLTCLVKGFYPSDIAVEWESNGQPENNYKTTPPVLDSDGSFFLYSKLTVDKSRWQQGNVFSCSVMHEALHNHYTQKSLSLSGEC
chain 3: DIQMTQSPSSLSASVGDRVTITCRASQSVSSAVAWYQQKPGKAPKLLIYSASSLYSGVPSRFSGSRSGTDFTLTISSLQPEDFATYYCQQYYTSPYTFGQGTKVEIKRTVAAPSVFIFPPSDEQLKSGTASVVCLLNNFYPREAKVQWKVDNALQSGNSQESVTEQDSKDSTYSLSSTLTLSKADYEKHKVYACEVTHQGLSSPVTKSFNRGECDKTHTCPPCPAPELLGGPSVFLFPPKPKDTLMISRTPEVTCVVVDVSHEDPEVKFNWYVDGVEVHNAKTKPREEQYNSTYRVVSVLTVLHQDWLNGKEYKCKVSNKALPAPIEKTISKAKGQPREPQVCTLPPSREEMTKNQVSLSCAVKGFYPSDIAVEWESNGQPENNYKTTPPVLDSDGSFFLVSKLTVDKSRWQQGNVFSCSVMHEALHNHYTQKSLSLSPGK
chain 4: EVQLVESGGGLVQPGGSLRLSCAASGFTFSSYYIHWVRQAPGKGLEWVAWITSHGYSTKYADSVKGRFTISADTSKNTAYLQMNSLRAEDTAVYYCARDSVIYGLDYWGQGTLVTVSSASTKGPSVFPLAPSSKSTSGGTAALGCLVKDYFPEPVTVSWNSGALTSGVHTFPAVLQSSGLYSLSSVVTVPSSSLGTQTYICNVNHKPSNTKVDKKVEPPKSC
notes: B-Body of four polypeptide chains, BC1 format; CD47 arm from C59, PD-L1 arm from P22; also called C59 × P22
In assay [1], B3 showed an EC50 of 2.3 nM.

B4: C40 x P31.2 bispecific antibody in a BC44 format (bispecific antibody)
chain 1: not shown
chain 2: EVQLVESGGGLVQPGGSLRLSCAASGFTFSYYYIHWVRQAPGKGLEWVAWIDPYGHSTTYADSVKGRFTISADTSKNTAYLQMNSLRAEDTAVYYCARGGRGAMDYWGQGTLVTVSSASPREPQVYTLPPCRDELTKNQVSLTCLVKGFYPSDIAVEWESNGQPENNYKTTPPVLDSDGSFFLYSKLTVDKSRWQQGNVFSCSVMHEALHNHYTQKSLSLSPGK
chain 3: DIQMTQSPSSLSASVGDRVTITCRASQSVSSAVAWYQQKPGKAPKLLIYSASSLYSGVPSRFSGSRSGTDFTLTISSLQPEDFATYYCQQFGAEPITFGQGTKVEIKRTVAAPSVFIFPPSDEQLKSGTASVVCLLNNFYPREAKVQWKVDNALQSGNSQESVTEQDSKDSTYSLSSTLTLSKADYEKHKVYACEVTHQGLSSPVTKSFNRGECDKTHTCPPCPAPELLGGPSVFLFPPKPKDTLMISRTPEVTCVVVDVSHEDPEVKFNWYVDGVEVHNAKTKPREEQYNSTYRVVSVLTVLHQDWLNGKEYKCKVSNKALPAPIEKTISKAKGQPREPQVCTLPPSREEMTKNQVSLSCAVKGFYPSDIAVEWESNGQPENNYKTTPPVLDSDGSFFLVSKLTVDKSRWQQGNVFSCSVMHEALHNHYTQKSLSLSPGK
chain 4: EVQLVESGGGLVQPGGSLRLSCAASGFTFSSYYIHWVRQAPGKGLEWVATISSGGGFTYYADSVKGRFTISADTSKNTAYLQMNSLRAEDTAVYYCARGYTLTPVLDYWGQGTLVTVSSASTKGPSVFPLAPSSKSTSGGTAALGCLVKDYFPEPVTVSWNSGALTSGVHTFPAVLQSSGLYSLSSVVTVPSSSLGTQTYICNVNHKPSNTKVDKKVEPPKSC
notes: B-Body of four polypeptide chains, BC44 format; CD47 arm from C40, PD-L1 arm from P31.2; also called C40 × P31.2
Take B4: the response in assay [2] was half-maximal at 0.227 nM (EC50). In assay [3], the “IC50, CD47/SIRPα Inhibition Assay in PD-L1 MDA-MB-231 Cells” value was determined as 0.108 nM. In addition, in assay [4], the “IC50, PD-1/PD-L1 Inhibition Assay in Jeko-PD-L1 Cells” value was determined as 0.0115 nM and the “IC50, PD-1/PD-L1 Inhibition Assay in MDA-MB-231 PD-L1 Cells” value came out at 1.5 nM. For the same molecule, the EC50 in assay [5] turned out to be 0.69 nM.

B5: C59 x P22 bispecific antibody in a BC44 format (bispecific antibody)
chain 1: not shown
chain 2: EVQLVESGGGLVQPGGSLRLSCAASGFTFTSYYIHWVRQAPGKGLEWVAYIDSKHGTTQYADSVKGRFTISADTSKNTAYLQMNSLRAEDTAVYYCARGGRSAMDYWGQGTLVTVSSASPREPQVYTLPPCRDELTKNQVSLTCLVKGFYPSDIAVEWESNGQPENNYKTTPPVLDSDGSFFLYSKLTVDKSRWQQGNVFSCSVMHEALHNHYTQKSLSLSPGK
chain 3: DIQMTQSPSSLSASVGDRVTITCRASQSVSSAVAWYQQKPGKAPKLLIYSASSLYSGVPSRFSGSRSGTDFTLTISSLQPEDFATYYCQQYYTSPYTFGQGTKVEIKRTVAAPSVFIFPPSDEQLKSGTASVVCLLNNFYPREAKVQWKVDNALQSGNSQESVTEQDSKDSTYSLSSTLTLSKADYEKHKVYACEVTHQGLSSPVTKSFNRGECDKTHTCPPCPAPELLGGPSVFLFPPKPKDTLMISRTPEVTCVVVDVSHEDPEVKFNWYVDGVEVHNAKTKPREEQYNSTYRVVSVLTVLHQDWLNGKEYKCKVSNKALPAPIEKTISKAKGQPREPQVCTLPPSREEMTKNQVSLSCAVKGFYPSDIAVEWESNGQPENNYKTTPPVLDSDGSFFLVSKLTVDKSRWQQGNVFSCSVMHEALHNHYTQKSLSLSPGK
chain 4: EVQLVESGGGLVQPGGSLRLSCAASGFTFSSYYIHWVRQAPGKGLEWVAWITSHGYSTKYADSVKGRFTISADTSKNTAYLQMNSLRAEDTAVYYCARDSVIYGLDYWGQGTLVTVSSASTKGPSVFPLAPSSKSTSGGTAALGCLVKDYFPEPVTVSWNSGALTSGVHTFPAVLQSSGLYSLSSVVTVPSSSLGTQTYICNVNHKPSNTKVDKKVEPPKSC
notes: B-Body of four polypeptide chains, BC44 format; CD47 arm from C59, PD-L1 arm from P22; also called C59 × P22
Regarding B5, the “IC50, CD47/SIRPα Inhibition Assay in PD-L1 MDA-MB-231 Cells” value in assay [3] is 0.35 nM. For the same molecule, in assay [4], the “IC50, PD-1/PD-L1 Inhibition Assay in Jeko-PD-L1 Cells” value is 0.0481 nM and the “IC50, PD-1/PD-L1 Inhibition Assay in MDA-MB-231 PD-L1 Cells” value is 2.5 nM. Besides, in assay [5], the EC50 turned out to be 1.5 nM.

B6: C40 x P31.2 bispecific antibody in a BC1 format (bispecific antibody)
chain 1: not shown
chain 2: EVQLVESGGGLVQPGGSLRLSCAASGFTFSYYYIHWVRQAPGKGLEWVAWIDPYGHSTTYADSVKGRFTISADTSKNTAYLQMNSLRAEDTAVYYCARGGRGAMDYWGQGTLVTVSSASPREPQVYTDPPSRDELTKNQVSLTCLVKGFYPSDIAVEWESNGQPENNYKTTPPVLDSDGSFFLYSKLTVDKSRWQQGNVFSCSVMHEALHNHYTQKSLSLSGEC
chain 3: DIQMTQSPSSLSASVGDRVTITCRASQSVSSAVAWYQQKPGKAPKLLIYSASSLYSGVPSRFSGSRSGTDFTLTISSLQPEDFATYYCQQFGAEPITFGQGTKVEIKRTVAAPSVFIFPPSDEQLKSGTASVVCLLNNFYPREAKVQWKVDNALQSGNSQESVTEQDSKDSTYSLSSTLTLSKADYEKHKVYACEVTHQGLSSPVTKSFNRGECDKTHTCPPCPAPELLGGPSVFLFPPKPKDTLMISRTPEVTCVVVDVSHEDPEVKFNWYVDGVEVHNAKTKPREEQYNSTYRVVSVLTVLHQDWLNGKEYKCKVSNKALPAPIEKTISKAKGQPREPQVCTLPPSREEMTKNQVSLSCAVKGFYPSDIAVEWESNGQPENNYKTTPPVLDSDGSFFLVSKLTVDKSRWQQGNVFSCSVMHEALHNHYTQKSLSLSPGK
chain 4: EVQLVESGGGLVQPGGSLRLSCAASGFTFSSYYIHWVRQAPGKGLEWVATISSGGGFTYYADSVKGRFTISADTSKNTAYLQMNSLRAEDTAVYYCARGYTLTPVLDYWGQGTLVTVSSASTKGPSVFPLAPSSKSTSGGTAALGCLVKDYFPEPVTVSWNSGALTSGVHTFPAVLQSSGLYSLSSVVTVPSSSLGTQTYICNVNHKPSNTKVDKKVEPPKSC
notes: B-Body of four polypeptide chains, BC1 format; CD47 arm from C40, PD-L1 arm from P31.2; also called C40 × P31.2
For the molecule B6, in assay [1], the response was half-maximal at 0.13 nM (EC50).
